Measured values: PMC4475429 (2015)

Target: PKA RIα (Homo sapiens, UniProt P10644)
Assay: fluorescence polarization competition vs RI-STAD-3

PKA RIα, sequence (P10644 whole entry): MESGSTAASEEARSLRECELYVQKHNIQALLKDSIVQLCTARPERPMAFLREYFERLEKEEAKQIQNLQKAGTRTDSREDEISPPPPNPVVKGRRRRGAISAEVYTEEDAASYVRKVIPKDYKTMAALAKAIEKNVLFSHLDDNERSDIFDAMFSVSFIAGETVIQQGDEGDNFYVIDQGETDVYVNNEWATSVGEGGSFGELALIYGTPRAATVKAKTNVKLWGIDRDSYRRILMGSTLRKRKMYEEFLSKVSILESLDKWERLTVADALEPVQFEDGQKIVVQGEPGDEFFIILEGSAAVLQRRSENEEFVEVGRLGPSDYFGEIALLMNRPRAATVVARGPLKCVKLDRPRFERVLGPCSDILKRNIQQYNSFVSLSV

B1: Ht31 AKB (peptide)
chain: WKNVLQGGESTKERFENSNIGTA
- IC50: 1500 nM
